± gives the standard deviation of the averaged measurements.
Assay: total protein half-life in vivo (active degradation + dilution); higher = more stable protein
[1] = E. coli NCM3722 delta-clpP delta-lon delta-hslV, growth: N-lim chemostat, doubling time 6 h
[2] = wild type E. coli NCM3722, growth: C-lim chemostat, doubling time 3 h
[3] = wild type E. coli NCM3722, growth: C-lim chemostat, doubling time 12 h
[4] = wild type E. coli NCM3722, growth: P-lim chemostat, doubling time 12 h
[5] = E. coli NCM3722 delta-smpB, growth: N-lim chemostat, doubling time 6 h
[6] = wild type E. coli NCM3722, growth: C-lim chemostat, doubling time 6 h
[7] = E. coli NCM3722 delta-clpP, growth: N-lim chemostat, doubling time 6 h
[8] = E. coli NCM3722 delta-hslV, growth: N-lim chemostat, doubling time 6 h
[9] = E. coli NCM3722 delta-lon, growth: N-lim chemostat, doubling time 6 h
[10] = wild type E. coli NCM3722, growth: N-lim chemostat, doubling time 6 h
[11] = wild type E. coli NCM3722, growth: N-lim chemostat, doubling time 12 h
[12] = wild type E. coli NCM3722, growth: P-lim chemostat, doubling time 6 h

Sequence | total protein half-life in vivo [1] [h] | total protein half-life in vivo [2] [h] | total protein half-life in vivo [3] [h] | total protein half-life in vivo [4] [h] | total protein half-life in vivo [5] [h] | total protein half-life in vivo [6] [h] | total protein half-life in vivo [7] [h] | total protein half-life in vivo [8] [h] | total protein half-life in vivo [9] [h] | total protein half-life in vivo [10] [h] | total protein half-life in vivo [11] [h] | total protein half-life in vivo [12] [h]
MSELIVSRQQRVLLLTLNRPAARNALNNALLMQLVNELEAAATDTSISVCVITGNARFFAAGADLNEMAEKDLAATLNDTRPQLWARLQAFNKPLIAAVNGYALGAGCELALLCDVVVAGENARFGLPEITLGIMPGAGGTQRLIRSVGKSLASKMVLSGESITAQQAQQAGLVSDVFPSDLTLEYALQLASKMARHSPLALQAAKQALRQSQEVALQAGLAQERQLFTLLAATEDRHEGISAFLQKRTPDFKGR | 5.63 | 2.67 | 6.46 | 6.46 |  |  |  |  |  |  |  | 
MSELKISPELLQISPEVQDALKNKKPVVALESTIISHGMPFPQNAQTAIEVEETIRKQGAVPATIAIIGGVMKVGLSKEEIELLGREGHNVTKVSRRDLPFVVAAGKNGATTVASTMIIAALAGIKVFATGGIGGVHRGAEHTFDISADLQELANTNVTVVCAGAKSILDLGLTTEYLETFGVPLIGYQTKALPAFFCRTSPFDVSIRLDSASEIARAMVVKWQSGLNGGLVVANPIPEQFAMPEHTINAAIDQAVAEAEAQGVIGKESTPFLLARVAELTGGDSLKSNIQLVFNNAILASEIAKEYQRLAG |  | 2.56 ± 0.11 | 6.33 ± 0.81 | 4.2 | 1.52 ± 0.068 | 4.42 ± 0.53 |  |  |  |  |  | 
MSELLSFALFLASVLIYAWKAGRNTWWFAATLTVLGLFVVLNITLFASDYFTGDGINDAVLYTLTNSLTGAGVSKYILPGIGIVLGLTAVFGALGWILRRRRHHPHHFGYSLLALLLALGSVDASPAFRQITELVKSQSRDGDPDFAAYYKEPSKTIPDPKLNLVYIYGESLERTYFDNEAFPDLTPELGALKNEGLDFSHTQQLPGTDYTIAGMVASQCGIPLFAPFEGNASASVSSFFPQNICLGDILKNSGYQNYFVQGANLRFAGKDVFLKSHGFDHLYGSEELKSVVADPHYRNDWGFYDDTVLDEAWKKFEELSRSGQRFSLFTLTVDTHHPDGFISRTCNRKKYDFDGKPNQSFSAVSCSQENIATFINKIKASPWFKDTVIVVSSDHLAMNNTAWKYLNKQDRNNLFFVIRGDKPQQETLAVKRNTMDNGATVLDILGGDNYLGLGRSSLSGQSMSEIFLNIKEKTLAWKPDIIRLWKFPKEMKEFTIDQQKNMIAFSGSHFRLPLLLRVSDKRVEPLPESEYSAPLRFQLADFAPRDNFVWVDRCYKMAQLWAPELALSTDWCVSQGQLGGQQIVQHVDKTTWQGKTAFKDTVIDMARYKGNVDTLKIVDNDIRYKADSFIFNVAGAPEEVKQFSGISRPESWGRWSNAQLGDEVKIEYKHPLPKKFDLVITAKAYGNNASRPIPVRVGNEEQTLVLGNEVTTTTLHFDNPTDADTLVIVPPEPVSTNEGNILGHSPRKLGIGMVEIKVVEREG | 4.02 ± 0.17 | 2.17 ± 0.05 | 3.93 ± 0.84 |  | 3.47 ± 0.035 | 2.99 ± 0.12 | 2.98 ± 0.2 | 3.42 ± 0.56 | 4.63 ± 0.46 | 3.35 ± 0.42 | 4.45 ± 0.4 | 
MSEMTPREIVSELDKHIIGQDNAKRSVAIALRNRWRRMQLNEELRHEVTPKNILMIGPTGVGKTEIARRLAKLANAPFIKVEATKFTEVGYVGKEVDSIIRDLTDAAVKMVRVQAIEKNRYRAEELAEERILDVLIPPAKNNWGQTEQQQEPSAARQAFRKKLREGQLDDKEIEIDLAAAPMGVEIMAPPGMEEMTSQLQSMFQNLGGQKQKARKLKIKDAMKLLIEEEAAKLVNPEELKQDAIDAVEQHGIVFIDEIDKICKRGESSGPDVSREGVQRDLLPLVEGCTVSTKHGMVKTDHILFIASGAFQIAKPSDLIPELQGRLPIRVELQALTTSDFERILTEPNASITVQYKALMATEGVNIEFTDSGIKRIAEAAWQVNESTENIGARRLHTVLERLMEEISYDASDLSGQNITIDADYVSKHLDALVADEDLSRFIL [P0A6H5] | 5.09 ± 0.28 | 2.95 ± 0.36 | 10.3 ± 0.44 | 10.98 ± 0.036 | 4.21 ± 0.085 | 5.94 ± 0.93 | 5.18 ± 0.56 | 4.46 ± 0.12 | 5.23 ± 0.29 | 4.79 ± 0.11 | 8.11 ± 0.2 | 5.29 ± 0.054
MSENSIRLTQYSHGAGCGCKISPKVLETILHSEQAKFVDPNLLVGNETRDDAAVYDLGNGTSVISTTDFFMPIVDNPFDFGRIAATNAISDIFAMGGKPIMAIAILGWPINKLSPEIAREVTEGGRYACRQAGIALAGGHSIDAPEPIFGLAVTGIVPTERVKKNSTAQAGCKLFLTKPLGIGVLTTAEKKSLLKPEHQGLATEVMCRMNIAGASFANIEGVKAMTDVTGFGLLGHLSEMCQGAGVQARVDYEAIPKLPGVEEYIKLGAVPGGTERNFASYGHLMGEMPREVRDLLCDPQTSGGLLLAVMPEAENEVKATAAEFGIELTAIGELVPARGGRAMVEIR | 3.58 ± 0.34 | 3.01 ± 0.23 | 8.899 ± 0.067 | 10.1 ± 0.65 | 2.76 ± 0.077 | 4.95 ± 0.13 | 2.94 ± 0.2 | 2.5242 ± 0.00055 | 3.85 ± 0.73 | 2.816 ± 0.0089 | 3.67 ± 0.27 | 5.34 ± 0.23
MSEPQRLFFAIDLPAEIREQIIHWRATHFPPEAGRPVAADNLHLTLAFLGEVSAEKEKALSLLAGRIRQPGFTLTLDDAGQWLRSRVVWLGMRQPPRGLIQLANMLRSQAARSGCFQSNRPFHPHITLLRDASEAVTIPPPGFNWSYAVTEFTLYASSFARGRTRYTPLKRWALTQ | 5.3 ± 0.55 | 3.11 | 11 | 11.33 ± 0.097 | 4.66 ± 0.56 | 6.25 ± 0.27 | 4.8 |  |  | 5.03 ± 0.89 | 8.49 ± 0.71 | 5.55 ± 0.13
MSEQETRGANEAIDFNDELRNRREKLAALRQQGVAFPNDFRRDHTSDQLHEEFDAKDNQELESLNIEVSVAGRMMTRRIMGKASFVTLQDVGGRIQLYVARDSLPEGVYNDQFKKWDLGDIIGARGTLFKTQTGELSIHCTELRLLTKALRPLPDKFHGLQDQEVRYRQRYLDLIANDKSRQTFVVRSKILAAIRQFMVARGFMEVETPMMQVIPGGASARPFITHHNALDLDMYLRIAPELYLKRLVVGGFERVFEINRNFRNEGISVRHNPEFTMMELYMAYADYHDLIELTESLFRTLAQEVLGTTKVTYGEHVFDFGKPFEKLTMREAIKKYRPETDMADLDNFDAAKALAESIGITVEKSWGLGRIVTEIFDEVAEAHLIQPTFITEYPAEVSPLARRNDVNPEITDRFEFFIGGREIGNGFSELNDAEDQAERFQEQVNAKAAGDDEAMFYDEDYVTALEYGLPPTAGLGIGIDRMIMLFTNSHTIRDVILFPAMRPQK [P0A8N5] | 5.8 ± 0.78 | 3.05 ± 0.11 | 9.948 ± 0.028 | 11.2 ± 0.22 | 4.87 ± 0.087 | 5.71 ± 0.27 | 5.16 ± 0.085 | 4.88 ± 0.071 | 5.06 ± 0.16 | 4.74 ± 0.36 | 7.77 ± 0.82 | 5.55 ± 0.27
MSEQHAQGADAVVDLNNELKTRREKLANLREQGIAFPNDFRRDHTSDQLHAEFDGKENEELEALNIEVAVAGRMMTRRIMGKASFVTLQDVGGRIQLYVARDDLPEGVYNEQFKKWDLGDILGAKGKLFKTKTGELSIHCTELRLLTKALRPLPDKFHGLQDQEARYRQRYLDLISNDESRNTFKVRSQILSGIRQFMVNRGFMEVETPMMQVIPGGAAARPFITHHNALDLDMYLRIAPELYLKRLVVGGFERVFEINRNFRNEGISVRHNPEFTMMELYMAYADYKDLIELTESLFRTLAQDILGKTEVTYGDVTLDFGKPFEKLTMREAIKKYRPETDMADLDNFDSAKAIAESIGIHVEKSWGLGRIVTEIFEEVAEAHLIQPTFITEYPAEVSPLARRNDVNPEITDRFEFFIGGREIGNGFSELNDAEDQAQRFLDQVAAKDAGDDEAMFYDEDYVTALEHGLPPTAGLGIGIDRMVMLFTNSHTIRDVILFPAMRPVK [P0A8N3] | 5.76 ± 0.38 | 3.07 ± 0.11 | 10.3 ± 0.74 | 10.6 ± 0.79 | 5.19 ± 0.12 | 5.894 ± 0.022 | 5.45 ± 0.16 | 5.23 ± 0.14 | 5.58 ± 0.26 | 4.98 ± 0.45 | 8.8 ± 0.29 | 5.67 ± 0.29
MSEQNNTEMTFQIQRIYTKDISFEAPNAPHVFQKDWQPEVKLDLDTASSQLADDVYEVVLRVTVTASLGEETAFLCEVQQGGIFSIAGIEGTQMAHCLGAYCPNILFPYARECITSMVSRGTFPQLNLAPVNFDALFMNYLQQQAGEGTEEHQDA [P0AG86] | 5.809 ± 0.028 | 2.91 ± 0.79 | 11.2 ± 1.2 | 13.8 ± 2.5 | 5.16 ± 0.59 | 7.35 ± 0.53 | 5.336 ± 0.019 |  | 6.08 ± 0.59 | 5.17 ± 0.34 | 9.15 | 
MSESLRIIFAGTPDFAARHLDALLSSGHNVVGVFTQPDRPAGRGKKLMPSPVKVLAEEKGLPVFQPVSLRPQENQQLVAELQADVMVVVAYGLILPKAVLEMPRLGCINVHGSLLPRWRGAAPIQRSLWAGDAETGVTIMQMDVGLDTGDMLYKLSCPITAEDTSGTLYDKLAELGPQGLITTLKQLADGTAKPEVQDETLVTYAEKLSKEEARIDWSLSAAQLERCIRAFNPWPMSWLEIEGQPVKVWKASVIDTATNAAPGTILEANKQGIQVATGDGILNLLSLQPAGKKAMSAQDLLNSRREWFVPGNRLV | 5.19 ± 0.35 | 3.118 ± 0.012 | 8.28 ± 1.2 | 10.1 ± 0.96 | 4.49 ± 0.29 | 5.91 ± 0.49 | 4.68 ± 0.25 | 5.38 ± 1 | 6.55 ± 0.13 | 4.84 ± 0.38 | 7.62 ± 0.9 | 5.62 ± 0.28

Source: the supplement of paper PMC11246515
